The target in this test is Bacillus thuringiensis Cry11Ba toxin (Bacillus thuringiensis) (UniProt Q45730). The test is described as follows: ELISA.

pKd: −log10 of the molar value.

With “APN2t, truncated 70-kDa AgAPN2 peptide (residues 228 to 843) (domain or fragment)”, the pKd – broadly, −log10 of the Kd, conventionally taken in molar units – was 8.19.

The values above are taken from paper PMC2660596.
